One molecule from US20230312722A1 (NONA BIOSCIENCES SUZHOU, published 2023) can be followed below.

Changes are numbered by the printed parent chain.

Assay [1] deals with T1, cynomolgus monkey B7H4 on the cell surface (cynomolgus monkey, UniProt A0A2K5U6P5 25-282).
T1 construct: whole, on cells; also called CHOK1/cyno B7H4
T1 sequence: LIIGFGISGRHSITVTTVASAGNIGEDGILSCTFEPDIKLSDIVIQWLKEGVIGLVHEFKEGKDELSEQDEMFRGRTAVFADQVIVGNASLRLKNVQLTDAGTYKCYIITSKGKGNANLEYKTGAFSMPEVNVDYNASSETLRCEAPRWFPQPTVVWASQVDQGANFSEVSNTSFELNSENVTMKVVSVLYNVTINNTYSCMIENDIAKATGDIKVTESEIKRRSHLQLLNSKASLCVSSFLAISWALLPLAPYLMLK
In words: FACS, CHOK1/cyno B7H4 cells. The protocol:
(§1) This example is intended to investigate the in vitro binding activity of anti-human B7H4 H2L2 monoclonal antibody to human/cynomolgus monkey/mouse B7H4. Antibody binding experiments at the cellular level were performed using CHOK1 cell line overexpressing human B7H4 (CHOK1/hu B7H4, Harbour BioMed), CHOK1 cell line overexpressing cynomolgus monkey B7H4 (CHOK1/cyno B7H4, Harbour BioMed), CHOK1 cell line overexpressing mouse B7H4 (CHOK1/m B7H4, Harbour BioMed) and SK-BR-3 cell line (ATCC® HTB-30) highly expressing human B7H4. Briefly, CHOK1/hu B7H4 cells, CHOK1/cyno B7H4 cells, CHOK1/m B7H4 cells or SK-BR-3 cells were digested and resuspended with PBS containing 2% BSA. The cell density was adjusted to 1×10⁶ cells/mL. The cells were seeded in a 96-well V-bottom plate (Corning, #3894) at 100 μL/well, followed by the addition of test antibodies diluted in a 3-fold concentration gradient of 2 times the final concentration, each at 100 μL/well. The cells were incubated at 4° C. for 2 h away from light. Thereafter, the cells in each well were rinsed twice with 100 μL of pre-cooled PBS containing 2% BSA, and centrifuged at 500 g at 4° C. for 5 min, and then the supernatant was discarded. Then 100 μL of a fluorescent secondary antibody (Alexa Fluor 488-conjugated AffiniPure Goat Anti-Human IgG, Fcγ Fragment Specific, Jackson, #109-545-098, 1:500 diluted) was added to each well. The plate was incubated away from light at 4° C. for 1 h. The cells in each well were washed twice with 100 μL of pre-cooled PBS containing 2% BSA, and centrifuged at 500 g at 4° C. for 5 minutes, and then the supernatant was discarded. Finally, the cells in each well were resuspended with 200 μL of pre-cooled PBS containing 2% BSA, and the fluorescence signal values were read using an ACEA Novocyte3000 flow cytometer.
For orientation: Flow cytometry measures light scatter and fluorescence of single cells or particles in a stream.

Assay [2] addresses T2, human B7H4 on the cell surface (human, UniProt Q7Z7D3 25-282).
T2 construct: whole, on cells; also called CHOK1/hu B7H4; B7H4 on SK-BR-3
T2 sequence (looked up): T1 sequence with I53L, L242F, A252S
In words: FACS, SK-BR-3 cells. Here is the method:
as §1, with “Then 100 μL of a fluorescent secondary antibody (Alexa Fluor 488-conjugated AffiniPure Goat Anti-Human IgG, Fcγ Fragment Specific, Jackson, #109-545-098, 1:500 diluted) was added to each well. The plate was incubated away from light at 4° C. for 1 h. The cells in each well were washed twice with 100 μL of pre-cooled PBS containing 2% BSA, and centrifuged at 500 g at 4° C. for 5 minutes, and then the supernatant was discarded.” left out

In assay [3] the target is T3, Human B7H4 (his tag), Sino Biological #10738-H08H (human, UniProt Q7Z7D3 25-259).
T3 construct: extracellular domain; Bought protein; also called hB7H4-ECD-his
T3 sequence (looked up): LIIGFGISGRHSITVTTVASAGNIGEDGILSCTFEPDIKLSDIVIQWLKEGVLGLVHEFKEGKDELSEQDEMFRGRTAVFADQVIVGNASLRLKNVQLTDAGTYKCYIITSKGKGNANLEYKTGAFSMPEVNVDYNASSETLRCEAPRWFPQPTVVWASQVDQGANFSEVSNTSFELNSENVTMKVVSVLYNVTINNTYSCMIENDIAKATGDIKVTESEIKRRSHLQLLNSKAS
In words: SPR (Biacore T200), antibody captured on Protein A, B7H4-his as analyte, 1:1 fit. Here is the method:
10×HBS-EP+ (GE Healthcare, #BR-1006-69) was diluted 10-fold and then taken as an experimental buffer. The flow rate was set at 10 μL/min, and Protein A was coupled to 4 channels of a chip CM5 (GE Healthcare, #BR-1005-30) through the following procedures: 1) the injection time was set to 800 s, and a fresh mixture of 50 mM NHS and 200 mM EDC was injected into the 4 channels in a volume ratio of 1:1; 2) Protein A was diluted to 20 μg/mL with sodium acetate (GE Healthcare, #BR-1003-50) at pH 4.5 and injected into each channel for 800 s; and 3) 1 M ethanolamine at pH 8.5 was injected for 800 s to block the remaining active carboxyl groups on the chip surface. After blocking, the instrument was equilibrated with 1×HBS-EP+buffer for 2 hours, and the final coupling level of Protein A was about 2000 RU.
A multi-cycle kinetics mode was set at Biacore T200, and each cycle included antibody capture, analyte binding and chip regeneration. […] Finally, 10 mM glycine-hydrochloric acid at pH 1.5 (GE Healthcare, #BR-1003-54) was injected at the same flow rate for 30 s to regenerate the chip.
The experimental results were analyzed using the Biacore T200 analysis software 2.0, with channel 1 subtracted as a reference channel and a 1:1 kinetic fitting model selected as an analysis model.
(SPR reads the build-up and loss of mass on a sensor chip optically.)

Broadly, the EC50 is the midpoint of the concentration-response curve. The term Kd denotes the constant that tells how readily two partners part at equilibrium. Broadly, the koff is the rate constant with which the complex falls apart. What is called kon is a measure of how fast the partners come together.

B1: Control antibody 1 (PR000157) (antibody, V domains shown)
VH: EVQLVQSGAEVKKPGASVKVSCKASGYTFTSYWIGWVRQAPGQGLEWIGDIYPGGGYTNYNEKFKGRVTITRDTSTSTAYLELSSLRSEDTAVYYCARLAGSSYRGAMDSWGQGTLVTVSS
VL: DIQMTQSPSSLSASVGDRVTITCKASQGFNKYVAWYQQKPGKAPKLLIYYTSTLQPGVPSRFSGSGSGRDYTLTISSLQPEDFATYYCLQYGDLLYAFGQGTKVEIKR
notes: Anti-B7H4 IgG1 control antibody from WO2016040724A1; also called 1D11.v1.9varC2
Regarding B1, in assay [1], the EC50 is 2.06 nM and the “Maximum MFI” value stood at 1.32e+06 MFI. In assay [2], a half-maximal response (EC50) required 1.2 nM and the “Maximum MFI” value came out at 266000 MFI. In assay [3], the Kd was found to be 4.67 nM, the koff worked out at 0.000189 s⁻¹ and the association rate constant (kon) came out at 40400 M⁻¹ s⁻¹.
